Columns and labels:
[1] = target: T1, Strep-HP1021 (orphan response regulator) (Helicobacter pylori 26695) (UniProt O25665); assay: EMSA; conditions: EMSA: 50 mM Tris-Cl, 250 mM KCl, 5 mM DTT, pH 7.0, 100 ng/uL sheared salmon sperm DNA, 37 C 30 min, 20 uL, 4% native PAGE, footprinting: 37 C 30 min
T1 sequence: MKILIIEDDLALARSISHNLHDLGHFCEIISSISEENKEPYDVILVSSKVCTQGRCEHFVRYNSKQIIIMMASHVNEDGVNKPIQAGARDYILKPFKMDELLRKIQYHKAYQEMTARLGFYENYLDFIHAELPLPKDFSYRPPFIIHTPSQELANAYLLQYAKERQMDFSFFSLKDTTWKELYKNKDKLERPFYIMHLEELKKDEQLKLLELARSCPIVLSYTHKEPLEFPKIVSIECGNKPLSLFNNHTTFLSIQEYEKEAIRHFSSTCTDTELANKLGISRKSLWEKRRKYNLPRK

[2] = target: T1, Strep-HP1021 (orphan response regulator) (Helicobacter pylori 26695); assay: competition; conditions: EMSA: 50 mM Tris-Cl, 250 mM KCl, 5 mM DTT, pH 7.0, 100 ng/uL sheared salmon sperm DNA, 37 C 30 min, 20 uL, 4% native PAGE, footprinting: 37 C 30 min

Question: How did the binding [1] turn out when “CCATTATCACTCCAATTTTAATTCTCATTTTTTTGCGAGTTTTTGATCTTTATAAATTCTAAAGGGGTATTAAACGCACTTCTAATAACGATTTTATAGCGCTTCAAAGATATAACACTAATTCATTTTAAATAATAATTAGTTAATGAACGCTTCCAGCCGGCTTCGTCAGTCGAAACATGTACGTGATTACATCCAACCTTGATTTCGTTATGTCTTCAAGGAAAAACACTTTAAGAATAGGAGAATAAG (double strand) [PureAmt (mutated ureAB promoter probe)]” was run?
Answer: no binding

Question: How did the binding [1] turn out when “CCATTATCACTCCAATTTTAATTCTCATTTTTTTGCGAGTTTTTGATCTTTATAAATTCTAAAGGGGTATTAAACGCACTTCTAATAACGATTTTATAGCGCTTCAAAGATATAACACTAATTCATTTTAAATAATAATTAGTTAATGAACGCTTCTGTTAATCTTAGTAAATCAAAACATTGCTACAATTACATCCAACCTTGATTTCGTTATGTCTTCAAGGAAAAACACTTTAAGAATAGGAGAATAAG (double strand) [PureA (ureAB promoter, AF700 probe)]” was run?
Answer: binds

Question: How did the binding [2] turn out when “CCATTATCACTCCAATTTTAATTCTCATTTTTTTGCGAGTTTTTGATCTTTATAAATTCTAAAGGGGTATTAAACGCACTTCTAATAACGATTTTATAGCGCTTCAAAGATATAACACTAATTCATTTTAAATAATAATTAGTTAATGAACGCTTCTGTTAATCTTAGTAAATCAAAACATTGCTACAATTACATCCAACCTTGATTTCGTTATGTCTTCAAGGAAAAACACTTTAAGAATAGGAGAATAAG (double strand) [PureA cold probe (unlabeled)]” was run?
Answer: binds

— PMC9010608
